The results in this text go back to patent US20240392024A1 (SHANGHAI CELGEN BIO PHARMACEUTICAL, published 2024).

The target of test [1] is T1, TNFR2-His (Sino Biological, 10417-H08H, NP_001057.1 Met1-Asp257, with multi-histidine tag expressed on … (human, UniProt P20333 23-257)).
T1 construct: range 1-257; Bought protein; also called recombinant human TNFR2 protein; TNFR2-His antigen; not shown: C-terminal multi-histidine tag
T1 sequence (looked up): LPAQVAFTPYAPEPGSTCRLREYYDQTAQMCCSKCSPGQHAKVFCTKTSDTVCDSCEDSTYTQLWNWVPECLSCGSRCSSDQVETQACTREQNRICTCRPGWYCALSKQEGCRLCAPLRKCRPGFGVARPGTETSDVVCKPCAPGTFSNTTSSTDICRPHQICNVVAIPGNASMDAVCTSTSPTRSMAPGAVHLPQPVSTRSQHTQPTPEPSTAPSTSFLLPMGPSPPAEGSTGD
Put plainly: competition ELISA, coated TNFR2-His, biotin-labeled TNFα fusion protein at fixed concentration. The procedure: (§1) The ELISA plate was coated with TNFR2-His antigen (Sino Biological, 10417-H08H, Assessment #NP_001057.1. Met1-Asp257, with multi-histidine tags expressed on C-terminus) and blocked, added with the gradient diluted TNFR2 monoclonal antibodies and biotin-labeled TNFα fusion protein of fixed concentration for incubation, then added with the secondary antibody Ap-Strepavidin (Herobio, 510401) for incubation. After development, the detection was performed using microplate reader.
A general note: In an ELISA, binding on a coated surface is turned into a signal by an enzyme label.

Test [2] concerns the target T2, human TNFR2 on the cell membrane (human, UniProt P20333 23-461).
T2 construct: whole, on cells; One molecule for all cell formats; also called TNFR2-CHO cells; CHO-TNFR2
T2 sequence (looked up): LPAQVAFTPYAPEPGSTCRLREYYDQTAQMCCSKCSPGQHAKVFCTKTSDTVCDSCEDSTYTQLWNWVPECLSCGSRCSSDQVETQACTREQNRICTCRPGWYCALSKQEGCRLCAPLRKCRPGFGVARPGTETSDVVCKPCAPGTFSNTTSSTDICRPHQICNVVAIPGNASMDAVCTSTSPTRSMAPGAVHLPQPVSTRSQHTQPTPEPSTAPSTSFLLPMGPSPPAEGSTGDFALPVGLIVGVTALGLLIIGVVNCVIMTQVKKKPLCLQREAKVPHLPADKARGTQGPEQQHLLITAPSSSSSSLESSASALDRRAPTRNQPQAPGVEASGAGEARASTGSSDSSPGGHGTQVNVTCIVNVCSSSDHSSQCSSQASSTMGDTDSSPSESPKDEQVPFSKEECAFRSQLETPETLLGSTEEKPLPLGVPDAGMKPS
Description: flow cytometry, Jurkat-TNFR2 cells. As to the method: (§2) Purified human-mouse monoclonal antibodies against TNFR2 were co-cultured with TNFR2 positive Jurkat cells (Jurkat cells were transfected with pcDNA3.4-TNFR2 plasmid using conventional methods, and after screening, stable and highly expressed TNFR2 Jurkat cell lines were obtained) and stained. The antibody binding intensity was analyzed by flow cytometry. The specific steps are as follows: Jurkat-TNFR2 was counted, centrifuged, resuspended, then added to a 96-deep well plate, and the supernatant was discarded. The anti-TNFR2 antibody was gradient diluted, and added to the 96-deep well plate, After incubation and wash, the secondary antibody FITC-anti-human IgG (Abcam: 6854) was added, and the samples were detected using Beckman CytoFLEX.
(In flow cytometry, cells or beads pass a laser one at a time.)

The target in test [3] is T1, TNFR2-His (Sino Biological, 10417-H08H, …). Description: BLI, antibody captured on AHC probe, TNFR2 in solution. The procedure:
The GATOR (ProbeLife) detection instrument and AHC (Pall, 185064), Human antibody Capture probe were used to detect the dissociation constant (Kd) of human-mouse chimeric TNFR2 monoclonal antibody.
The human-mouse chimeric TNFR2 monoclonal antibodies were diluted to 50 nM in binding buffer (Q buffer [PBS (10 mM PH7.4)+0.02% Tween 20+0.2% BSA). The recombinant human TNFR2 protein was diluted in Q buffer with a 2-fold gradient starting from the highest concentration of 100 nM. The kinetic association assay was conducted by placing the antibody capture sensor in the continuously diluted antigen solutions mentioned above. The Octet Data Acquisition software was pened and the New Kinetics Experiment-Basic Kinetics mode was selected.
On the technique in general: Biolayer interferometry detects binding as a change in optical thickness at a sensor tip.

The target of test [4] is T2, human TNFR2 on the cell membrane. Description: flow cytometry on Jurkat-TNFR2 cells. As to the method: as §2
The target is the same in test [5]. Put plainly: competition flow cytometry, TNFR2 positive cells, TNFα fusion protein at fixed concentration. As to the method: Purified anti-human TNFR2 human-mouse monoclonal antibodies were co-cultured with TNFR2 positive cells and stained. The antibody binding intensity was analyzed by flow cytometry. The specific steps are as follows: cells were counted, centrifugated, resuspended, then added to a 96-deep well plate, and the supernatant was discarded. Gradient diluted anti-TNFR2 antibodies and TNFα fusion protein of fixed concentration were added. After incubation and wash, the secondary antibody PE-streptavidin (Biogen, 405203) was added for incubation, and the samples were detected using Beckman CytoFLEX.

Test [6] has as its target T1, TNFR2-His (Sino Biological, 10417-H08H, …). Description: competition ELISA on coated TNFR2-His against biotin-labeled TNFα fusion protein at fixed concentration. The procedure: as §1
For test [7] the target is unchanged. Description: ELISA, coated TNFR2-His. The method, boiled down:
(§3)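 EC50 was obtained from a dilution series in an ELISA format. Blocked plates carried recombinant human TNFR2 with a C-terminal His tag, and serially diluted antibodies were incubated on them. An enzyme-labelled anti-IgG secondary antibody followed. Plates were then developed with TMB and read on a microplate reader.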

The target in another test is T3, WT.
T3 construct: also called T cells of wild-type (WT) mice; mouse TNFR2 on the cell membrane
T3 chain: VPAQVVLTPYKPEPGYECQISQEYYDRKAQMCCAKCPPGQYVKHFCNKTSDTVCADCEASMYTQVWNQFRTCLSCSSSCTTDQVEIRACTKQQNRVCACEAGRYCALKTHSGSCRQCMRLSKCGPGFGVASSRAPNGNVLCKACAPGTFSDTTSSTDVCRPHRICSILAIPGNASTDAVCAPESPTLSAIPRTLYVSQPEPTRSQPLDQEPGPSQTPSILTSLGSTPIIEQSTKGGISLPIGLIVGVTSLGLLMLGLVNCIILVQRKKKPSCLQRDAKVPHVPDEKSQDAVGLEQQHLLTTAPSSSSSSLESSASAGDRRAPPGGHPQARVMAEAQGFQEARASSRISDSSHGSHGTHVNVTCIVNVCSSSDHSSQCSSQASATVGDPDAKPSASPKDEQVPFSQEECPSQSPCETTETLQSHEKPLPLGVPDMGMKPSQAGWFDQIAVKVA
Description: flow cytometry on ConA-stimulated spleen cells of WT mice, mCD3+ T cells. As to the method: (§4) The cells were stained again with Cy-3 anti-human IgG and FITC anti-mCD3 (BD, 555274) after washing, under the same incubation conditions. After washing, the detection was performed.

For test [8], the target named is T1, TNFR2-His (Sino Biological, 10417-H08H, …). Description: ELISA, plate coated with TNFR2-His. As to the method: To determine whether the human-mouse chimeric TNFR2 monoclonal antibody of the present invention can bind to recombinant human TNFR2 protein, in vitro ELISA test was conducted. Similar to the method described above, The plate was coated with TNFR2-His (Sino Biological, 10417-H08H, Assessment #NP_001057.1.Met1-Asp257, with multi-histidine tag expressed on C-terminus) antigens, and blocked with BSA, then added with gradient diluted human-mouse chimeric TNFR2 monoclonal antibodies for incubation. Then, secondary antibody Ap-anit-human IgG Fc (JacksonImmuno Research, 109-055-098) was added for incubation After TMB development, ELISA reading was performed.

In test [9] the target is T2, human TNFR2 on the cell membrane. Put plainly: flow cytometry on ConA-stimulated spleen cells of hTNFR2-KI mice, mCD3+ T cells. The procedure:
as §4

Test [10] has the same target. Description: flow cytometry on CHO-TNFR2 cells. The method, boiled down: (§5)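 EC50 values come from flow cytometry of serially diluted antibodies binding CHO cells that stably overexpress human TNFR2. After incubation in 96-deep-well plates, the cells were washed, stained with a fluorescent anti-IgG secondary antibody and read on a Beckman CytoFLEX.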
The target of test [11] is T1, TNFR2-His (Sino Biological, 10417-H08H, …). Put plainly: BLI, antibody captured on AHC probe, TNFR2-His in solution. The method, boiled down:
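Kon, koff and Kd values come from kinetic association measurements made by bio-layer interferometry (Octet, Basic Kinetics mode). Antibody-capture sensors carrying antibodies at 50 nM in Q buffer (10 mM PBS pH 7.4, 0.02% Tween 20, 0.2% BSA) were placed in recombinant human TNFR2, diluted 2-fold in the same buffer from a top concentration of 100 nM.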

The target of test [12] is T2, human TNFR2 on the cell membrane. Description: flow cytometry, CHO-TNFR2 cells. The method in brief: as §5
In test [13] the target is T1, TNFR2-His (Sino Biological, 10417-H08H, …). Put plainly: ELISA, plate coated with TNFR2-His. The method, boiled down:
as §3
The source holds these as a separate data set.

For test [14], the target named is T2, human TNFR2 on the cell membrane. Put plainly: flow cytometry on human PBMC, CD3+ T cells. The procedure:
Purified anti-human TNFR2 human-mouse chimeric monoclonal antibodies were co-cultured with PBMC cells (Oricells) and stained. The binding of the antibody was analyzed by flow cytometry. The specific steps are as follows: PBMC cells (Oricells) were counted, centrifuged, resuspended, then added to a 96-deep well plate, and the supernatant was discarded. Diluted anti-TNFR2 monoclonal antibodies were added.

Several values for one entry are separate records, joined by “and”; a condition that tells them apart may be missing. Identical values can stand only once.

B1: human-mouse chimeric TNFR2 monoclonal antibody 7F2-hFc (antibody, V domains shown)
VH: QVTLKESGPGILQPSQTLSLTCSFSGFSLNTFGLGVGWIRQPSGKGLEWLTHIWWNDDKYYNPALKSRLTISRDTSENLVFLKIANVDTADTATYYCARIEGLRRFDYWGQGTTLTVSS
VL: DIQMTQSPSSLSASLGGKVTITCKTSQDINKFIAWYQHKPGKGPRLLIHYTSTLQPGIPSRFSGSGSGRDYSFSISDLEPEDIATYYCLQYANLWAFGGGTKLEIK
notes: Mouse V regions of clone 7F2 with human constant regions
The term IC50 denotes the point on the concentration scale where inhibition reaches its midpoint. As usually defined, the EC50 is the midpoint of the concentration-response curve. By Kd is commonly meant the free concentration of one partner at which half of the binding sites on the other are occupied at equilibrium, for simple one-to-one binding. High values mean lower affinity, low ones higher affinity. What is called koff is the rate constant with which the complex falls apart. Read a low koff as a long-lived complex. Usually kon stands for the rate constant with which the complex forms. Low values mean slower complex formation, high ones faster complex formation. Consider B1, for which the IC50 in test [1] was 0.225 µg/mL; in [5] it was 0.417 µg/mL; in test [6], 0.229 µg/mL and 1.53 nM. The EC50 amounted to 0.024 µg/mL in [2], 0.0243 µg/mL in test [4], 0.319 nM in [7] and 0.0476 µg/mL in test [8]. The molecule also displayed a Kd in test [3] of 25.3 nM. Also, the koff in [3] worked out at 0.00639 s⁻¹. The on-rate (kon) in test [3] was 253000 M⁻¹ s⁻¹. The binding result in the test with WT is on record as “no binding”. Also, the “percent of cells in the upper right quadrant (Q2-UR, mCD3+ and anti-hIgG+)” value with WT amounted to 0.9%; in test [9], 45%.

B2: human-mouse chimeric TNFR2 monoclonal antibody 33C12-hFc (antibody, V domains shown)
VH: DVKLVESGGGLVKPGGSLKLSCAASGFTFSDYTMSWVRQTPEKRLEWVATISTGGSYTYYPDSVKGRFTISRDNAKNTLYLQMSSLKSEDTAMYYCTRDGGYDGDYFDYWGQGTTLTVSS
VL: ENVLTQSPAIMSASPGEKVTMTCRASSSVSSSYLHWYQQKSGASPKLWIYRTSNLASGVPARFSGSGSGTSYSLTISSVEAEDAATYYCQQYSGYPLTFGAGTRLELK
notes: Mouse V regions of clone 33C12 with human constant regions; also called human-mouse chimeric 33C12 antibody
With B2, the EC50 in [2] was 0.66 µg/mL; in test [4] it was 0.658 µg/mL; in test [10], 0.142 µg/mL; in test [7], 0.318 nM; in test [12], 0.951 nM; in [8] it was 0.0475 µg/mL. In addition, the EC50 in test [13] was 0.0782 µg/mL and 0.524 nM. For the same molecule, the Kd in test [3] came out at 21.9 nM; in test [11], 17.3 nM. The koff in [3] turned out to be 0.00286 s⁻¹; in test [11], 0.00156 s⁻¹. Further, the figures for the kon in test [3] and in test [11] were 131000 M⁻¹ s⁻¹ and 90500 M⁻¹ s⁻¹, respectively. Besides, the binding result in the test with WT is given as “no binding”. Moreover, the figures for the “percent of cells in the upper right quadrant (Q2-UR, mCD3+ and anti-hIgG+)” value (with WT; in [9]) were 1.02% and 43.6%, respectively.

B3: human-mouse chimeric TNFR2 monoclonal antibody 29A1-hFc (antibody, V domains shown)
VH: QVQLQQSGAEVVRPGASVTLSCKASGYTFSDYEMHWVKQTPVHGLEWIGAIDPETGDTAYNQKFKDKARVTADKSSSTAYMELRSLTSEDSAVYYCTRDIHYYGSSLSYFDYWGQGTTLTVSS
VL: DIVMTQSQKFMSTSVGDRVSVTCKASQNVGTNVAWYQQKPGQSPKVMIYSASYRYSGAPDRFTGSGSGTDFTLTVNNVQSEDLAEYFCQQYKTYPYTFGGGTKLEIE
notes: Mouse V regions of clone 29A1 with human constant regions
B3: the IC50 is 0.642 µg/mL in [1]; 0.648 µg/mL and 4.34 nM in [6]. This molecule also registered a Kd in test [3] of 16.3 nM. In addition, the dissociation rate constant (koff) in test [3] was 0.00469 s⁻¹. In addition, in test [3], the kon was determined as 289000 M⁻¹ s⁻¹. Also, the EC50 in test [4] came out at 14.2 µg/mL; in [7] it was 0.248 nM; in [8], 0.037 µg/mL. In addition, in [14], the “percent of cells in the upper right quadrant (Q1-UR, CD3+ and anti-human IgG Fc+)” value is 13.6%.
